{"source": "patent US20230233498A1", "about": "“COMPOSITIONS AND METHODS FOR THE TREATMENT OF COVID-19” (PROTHIONE, LLC, priority 2020, published 2023)", "origin": "cited, not measured here", "molecules": {"B1": {"name": "ZAP: zinc finger antiviral protein (protein, UniProt Q7Z2W4 2-902, looked up)", "Zinc finger CCCH-type …": "ADPEVCCFITKILCAHGGRMALDALLQEIALSEPQLCEVLQVAGPDRFVVLETGGEAGITRSVVATTRARVCRRKYCQRPCDNLHLCKLNLLGRCNYSQSERNLCKYSHEVLSEENFKVLKNHELSGLNKEELAVLLLQSDPFFMPEICKSYKGEGRQQICNQQPPCSRLHICDHFTRGNCRFPNCLRSHNLMDRKVLAIMREHGLNPDVVQNIQDICNSKHMQKNPPGPRAPSSHRRNMAYRARSKSRDRFFQGSQEFLASASASAERSCTPSPDQISHRASLEDAPVDDLTRKFTYLGSQDRARPPSGSSKATDLGGTSQAGTSQRFLENGSQEDLLHGNPGSTYLASNSTSAPNWKSLTSWTNDQGARRKTVFSPTLPAARSSLGSLQTPEAVTTRKGTGLLSSDYRIINGKSGTQDIQPGPLFNNNADGVATDITSTRSLNYKSTSSGHREISSPRIQDAGPASRDVQATGRIADDADPRVALVNDSLSDVTSTTSSRVDDHDSEEICLDHLCKGCPLNGSCSKVHFHLPYRWQMLIGKTWTDFEHMETIEKGYCNPGIHLCSVGSYTINFRVMSCDSFPIRRLSTPSSVTKPANSVFTTKWIWYWKNESGTWIQYGEEKDKRKNSNVDSSYLESLYQSCPRGVVPFQAGSRNYELSFQGMIQTNIASKTQKDVIRRPTFVPQWYVQQMKRGPDHQPAKTSSVSLTATFRPQEDFCFLSSKKYKLSEIHHLHPEYVRVSEHFKASMKNFKIEKIKKIENSELLDKFTWKKSQMKEEGKLLFYATSRAYVESICSNNFDSFLHETHENKYGKGIYFAKDAIYSHKNCPYDAKNVVMFVAQVLVGKFTEGNITYTSPPPQFDSCVDTRSNPSVFVIFQKDQVYPQYVIEYTEDKACVIS"}}, "key": {"Ebola virus (EBOV)": {"tested_on": "Ebola virus (EBOV)", "conditions": "cells expressing NZAP-Zeo or full-length ZAP"}, "EBOV replicon system": {"tested_on": "EBOV replicon system", "conditions": "transient expression"}}}
{"molecule": "B1", "values": [{"measurement": "EBOV inhibited", "setting": "Ebola virus (EBOV)", "value": "up to 4 log units"}, {"measurement": "decreased activity of an EBOV replicon system", "setting": "EBOV replicon system", "value": "up to 95%"}]}
